Molecular target: C-terminally truncated SthK 1-420
Assay: high-speed atomic force microscopy (HS-AFM); SthK reconstituted in lipid bilayers (E. coli polar lipid extract, lipid-to-protein ratio 0.8 to 1.0 w:w) as 2D-crystals, adsorbed on mica; imaging buffer 20 mM HEPES pH 8.0, 100 mM KCl, 100 uM cAMP; the oligomer is seen in topographs of single channels

stoichiometry N: 4
Substance: C-terminally truncated SthK 1-420 (domain or fragment)

— PMC6162275
